The values that follow are results of earlier work, collected in article PMC11166923.

For this data set, the target named is integrin β1D cytoplasmic tail (Homo sapiens) (UniProt P05556).
Chain of UniProt P05556 (P05556 752-798): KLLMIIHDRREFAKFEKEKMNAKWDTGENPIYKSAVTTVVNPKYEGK

What is called Kd is the equilibrium constant for the complex coming apart. Turning to Talin-2 (from UniProt Q9Y4G6), the dissociation constant Kd is 30 µM.
